The values that follow come from the supplement of paper PMC10567573.

B1: C8orf76 (parent)
chain: LYLQLAICSSLQNLEKTIFCLQKL
B2: PPEF2 (parent)
chain: AFKAAALIQRWYRRYVARLEMRRR
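Note: lentivirally expressed fusions sorted by FACS into six bins by GFP to DsRed ratio, PSI derived from sequencing read proportions per bin multiplied by bin number.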

One data set covers variants of B1. Description: protein stability index of a GFP-peptide fusion (GPS, HEK-293T) (PSI 1-6); higher = more stable. The following applies: c terminus: a fixed tail appended.
As to LYLQLAICSSLQNLEKTIFCLQKK [L24K], the protein stability index turned out to be 3.43. On to LYLQLAICSSLQNLEKTIFCLQKA [L24A], for which the protein stability index worked out at 2.13. For LYLQLAICSSLQNLEKTIFCLQKF [L24F], the protein stability index turned out to be 3.39. With LYLQLAICSSLQNLEKTIFCLQKD [L24D], the protein stability index was determined as 4.2. Consider LYLQLAICSSLQNLEKTIFCLQKS [L24S], for which the protein stability index turned out to be 1.49.

Consider LYLQLAICSSLQNLEKTIFCLQKW [L24W], for which the protein stability index turned out to be 2.79. Same read-out and setting: for LYLQLAICSSLQNLEKTIFCLQKC [L24C] the value was 3.89. For the variant LYLQLAICSSLQNLEKTIFCLQKE [L24E], the protein stability index turned out to be 1.75.

LYLQLAICSSLQNLEKTIFCLQKQ [L24Q]: the protein stability index was 3.56. Take LYLQLAICSSLQNLEKTIFCLQKP [L24P]: the protein stability index turned out to be 4.07. For LYLQLAICSSLQNLEKTIFCLQKI [L24I], the protein stability index turned out to be 2.35.

LYLQLAICSSLQNLEKTIFCLQTL [K23T]: the protein stability index amounted to 2.15. On to LYLQLAICSSLQNLEKTIFCLQML [K23M], for which the protein stability index came to 1.58. As to LYLQLAICSSLQNLEKTIFCLQRL [K23R], the protein stability index came to 3.49. In the case of LYLQLAICSSLQNLEKTIFCLQSL [K23S], the protein stability index amounted to 1.89.

With LYLQLAICSSLQNLEKTIFCLQNL [K23N], the protein stability index stood at 2.11. Consider LYLQLAICSSLQNLEKTIFCLQLL [K23L], for which the protein stability index worked out at 2.27. LYLQLAICSSLQNLEKTIFCLQYL [K23Y]: the protein stability index was 3.53.

With LYLQLAICSSLQNLEKTIFCLQWL [K23W], the protein stability index was determined as 3.62. As to LYLQLAICSSLQNLEKTIFCLQQL [K23Q], the protein stability index was determined as 4.24.

As for LYLQLAICSSLQNLEKTIFCLQPL [K23P], the protein stability index turned out to be 2.54. Regarding LYLQLAICSSLQNLEKTIFCLQIL [K23I], the protein stability index worked out at 2.72.

In another data set the parent is B2. The data set is described as above. The following applies: c terminus: a fixed tail appended.
For the variant AFKMAALIQRWYRRYVARLEMRRR [A4M], the protein stability index turned out to be 2.25. Consider AFKGAALIQRWYRRYVARLEMRRR [A4G], for which the protein stability index stood at 3.69. For the variant AFKPAALIQRWYRRYVARLEMRRR [A4P], the protein stability index is 2.38.

With AFKRAALIQRWYRRYVARLEMRRR [A4R], the protein stability index was 3.46. AFKVAALIQRWYRRYVARLEMRRR [A4V]: the protein stability index came out at 2.55. For the variant AFKSAALIQRWYRRYVARLEMRRR [A4S], the protein stability index stood at 2.13.

Regarding AFKCAALIQRWYRRYVARLEMRRR [A4C], the protein stability index is 3.15. The same measure, in the same setting: for AFKFAALIQRWYRRYVARLEMRRR [A4F] the value was 3.17.

As for AFKKAALIQRWYRRYVARLEMRRR [A4K], the protein stability index stood at 3.27.

For AFKAAALIQRWYFRYVARLEMRRR [R13F], the protein stability index is 2.06. For AFKAAALIQRWYIRYVARLEMRRR [R13I], the protein stability index turned out to be 2.53. Take AFKAAALIQRWYERYVARLEMRRR [R13E]: the protein stability index is 1.95.

Turning to AFKAAALIQRWYTRYVARLEMRRR [R13T], the protein stability index worked out at 1.8. Still for that read-out and setting: for AFKAAALIQRWYPRYVARLEMRRR [R13P] the value was 1.23; for AFKAAALIQRWYQRYVARLEMRRR [R13Q], 2.26. Still for that read-out and setting: for AFKAAALIQRWYMRYVARLEMRRR [R13M] the value was 1.93; for AFKAAALIQRWYKRYVARLEMRRR [R13K], 2.22; for AFKAAALIQRWYARYVARLEMRRR [R13A], 1.62.

For AFKAAALIQRWYLRYVARLEMRRR [R13L], the protein stability index was found to be 2.05. With AFKAAALIQRWYNRYVARLEMRRR [R13N], the protein stability index is 1.15. Still for that read-out and setting: for AFKAAALIQRWYHRYVARLEMRRR [R13H] the value was 2.16. Regarding AFKAAALIQRYYRRYVARLEMRRR [W11Y], the protein stability index was found to be 3.91.

Take AFKAAALIQRIYRRYVARLEMRRR [W11I]: the protein stability index was determined as 2.81. As to AFKAAALIQRAYRRYVARLEMRRR [W11A], the protein stability index was found to be 4.29. The same measure, in the same setting: for AFKAAALIQREYRRYVARLEMRRR [W11E] the value was 2.46.

On to AFKAAALIQRNYRRYVARLEMRRR [W11N], for which the protein stability index was 4.17. Turning to AFKAAALIQRMYRRYVARLEMRRR [W11M], the protein stability index was found to be 2.84. Turning to AFKAAALIQRGYRRYVARLEMRRR [W11G], the protein stability index turned out to be 2.55. Turning to AFKAAALIQRFYRRYVARLEMRRR [W11F], the protein stability index worked out at 3.99.

Take AFKAAALIQRKYRRYVARLEMRRR [W11K]: the protein stability index turned out to be 5.21. Regarding AFKAAALIQRSYRRYVARLEMRRR [W11S], the protein stability index worked out at 4.12.

Regarding AFKAAALIQRPYRRYVARLEMRRR [W11P], the protein stability index is 2.62. Regarding AFKAAALIQRQYRRYVARLEMRRR [W11Q], the protein stability index is 2.57. With AFKAAALIQRLYRRYVARLEMRRR [W11L], the protein stability index is 3.79. As for AFKAAALIQRDYRRYVARLEMRRR [W11D], the protein stability index amounted to 2.79. Same read-out and setting: for AFKAAALIQRHYRRYVARLEMRRR [W11H] the value was 2.28; for AFKAAVLIQRWYRRYVARLEMRRR [A6V], 4.97; for AFKAATLIQRWYRRYVARLEMRRR [A6T], 4.02. Turning to AFKAALLIQRWYRRYVARLEMRRR [A6L], the protein stability index came to 2.5.

On to AFKAAKLIQRWYRRYVARLEMRRR [A6K], for which the protein stability index was 2.83. For the variant AFKAADLIQRWYRRYVARLEMRRR [A6D], the protein stability index was found to be 3.14. For the variant AFKAAQLIQRWYRRYVARLEMRRR [A6Q], the protein stability index is 3.88. Take AFKAAPLIQRWYRRYVARLEMRRR [A6P]: the protein stability index is 1.95. For AFKAAELIQRWYRRYVARLEMRRR [A6E], the protein stability index was 3.81. The same measure, in the same setting: for AFKAACLIQRWYRRYVARLEMRRR [A6C] the value was 4.25; for AFKAAYLIQRWYRRYVARLEMRRR [A6Y], 1.75; for AFKAAFLIQRWYRRYVARLEMRRR [A6F], 2.77. For the variant DFKAAALIQRWYRRYVARLEMRRR [A1D], the protein stability index came to 2.36. On to VFKAAALIQRWYRRYVARLEMRRR [A1V], for which the protein stability index was 3.96.

On to MFKAAALIQRWYRRYVARLEMRRR [A1M], for which the protein stability index is 3.01. Regarding NFKAAALIQRWYRRYVARLEMRRR [A1N], the protein stability index was 3.6. TFKAAALIQRWYRRYVARLEMRRR [A1T]: the protein stability index was determined as 3.4.

As to GFKAAALIQRWYRRYVARLEMRRR [A1G], the protein stability index was 2.17.

Turning to CFKAAALIQRWYRRYVARLEMRRR [A1C], the protein stability index is 3.54. On the same count and under the same terms, for IFKAAALIQRWYRRYVARLEMRRR [A1I] the value was 3.77; for PFKAAALIQRWYRRYVARLEMRRR [A1P], 3.44. Regarding RFKAAALIQRWYRRYVARLEMRRR [A1R], the protein stability index was 3.66. With WFKAAALIQRWYRRYVARLEMRRR [A1W], the protein stability index was 1.77.

Regarding LFKAAALIQRWYRRYVARLEMRRR [A1L], the protein stability index was 4.05.

On to FFKAAALIQRWYRRYVARLEMRRR [A1F], for which the protein stability index was determined as 2.62. As for HFKAAALIQRWYRRYVARLEMRRR [A1H], the protein stability index came to 2.59. As for QFKAAALIQRWYRRYVARLEMRRR [A1Q], the protein stability index amounted to 3.52.

As for EFKAAALIQRWYRRYVARLEMRRR [A1E], the protein stability index came out at 4.09.

As for AMKAAALIQRWYRRYVARLEMRRR [F2M], the protein stability index worked out at 3.8. Same read-out and setting: for AYKAAALIQRWYRRYVARLEMRRR [F2Y] the value was 3.46. Regarding AWKAAALIQRWYRRYVARLEMRRR [F2W], the protein stability index was determined as 3.79. For the variant ADKAAALIQRWYRRYVARLEMRRR [F2D], the protein stability index stood at 3.53. As to ALKAAALIQRWYRRYVARLEMRRR [F2L], the protein stability index is 3.99. As for AKKAAALIQRWYRRYVARLEMRRR [F2K], the protein stability index is 3.04.

Turning to ARKAAALIQRWYRRYVARLEMRRR [F2R], the protein stability index stood at 3.76. Consider ANKAAALIQRWYRRYVARLEMRRR [F2N], for which the protein stability index stood at 3.3. Turning to APKAAALIQRWYRRYVARLEMRRR [F2P], the protein stability index stood at 3.78.
